Results from patent US9073974B2, “RGD-containing cyclic peptides” (The Regents of the University of California, priority 2009, dated 2015).
Each block holds one binder with its values, some of them ahead of it. Numbered stars: 1 amine (or outer) side, 2 acyl side, 3 side chain; on linkers, the order of the positions; unused ones are H or OH. Bridge positions count the residues as written; N and C are the ends. Square brackets hold non-standard residues; d marks the D form. Primed or numbered codes have the meaning given here. Side chains are listed from the residue outwards. Ends that are not written are not given here. Ebes = 2,2'-ethylenedioxy bis(ethylamine) monosuccinamide; Suc = O=C(CCC(=O)[*:2])[*:1]; Ebes″ = not defined here

Tests used:
αvβ3 integrin [1] = molecular target: T1, αvβ3 integrin (human, UniProt P06756 31-1048; P05106 27-788); assay: flow cytometry, competition with FITC-Echistatin on αvβ3-K562 cells; +++ = IC50 <1 µM
T1 construct: whole, on cells; Same entry used for αvβ3-K562, U-87 MG and A375M cells; also called αvβ3-K562; αvβ3 transfected K562 cells

αvβ3 integrin [2] = molecular target: T1, αvβ3 integrin; assay: flow cytometry, competition with FITC-Echistatin on αvβ3-K562 cells
αvβ3 integrin [3] = molecular target: T1, αvβ3 integrin; assay: as above; remark: listed apart in the source
[4] = molecular target: T2, αvβ3 integrin (human), P06756; assay: as above; conditions: remark: other sources report otherwise
T2 chain 1: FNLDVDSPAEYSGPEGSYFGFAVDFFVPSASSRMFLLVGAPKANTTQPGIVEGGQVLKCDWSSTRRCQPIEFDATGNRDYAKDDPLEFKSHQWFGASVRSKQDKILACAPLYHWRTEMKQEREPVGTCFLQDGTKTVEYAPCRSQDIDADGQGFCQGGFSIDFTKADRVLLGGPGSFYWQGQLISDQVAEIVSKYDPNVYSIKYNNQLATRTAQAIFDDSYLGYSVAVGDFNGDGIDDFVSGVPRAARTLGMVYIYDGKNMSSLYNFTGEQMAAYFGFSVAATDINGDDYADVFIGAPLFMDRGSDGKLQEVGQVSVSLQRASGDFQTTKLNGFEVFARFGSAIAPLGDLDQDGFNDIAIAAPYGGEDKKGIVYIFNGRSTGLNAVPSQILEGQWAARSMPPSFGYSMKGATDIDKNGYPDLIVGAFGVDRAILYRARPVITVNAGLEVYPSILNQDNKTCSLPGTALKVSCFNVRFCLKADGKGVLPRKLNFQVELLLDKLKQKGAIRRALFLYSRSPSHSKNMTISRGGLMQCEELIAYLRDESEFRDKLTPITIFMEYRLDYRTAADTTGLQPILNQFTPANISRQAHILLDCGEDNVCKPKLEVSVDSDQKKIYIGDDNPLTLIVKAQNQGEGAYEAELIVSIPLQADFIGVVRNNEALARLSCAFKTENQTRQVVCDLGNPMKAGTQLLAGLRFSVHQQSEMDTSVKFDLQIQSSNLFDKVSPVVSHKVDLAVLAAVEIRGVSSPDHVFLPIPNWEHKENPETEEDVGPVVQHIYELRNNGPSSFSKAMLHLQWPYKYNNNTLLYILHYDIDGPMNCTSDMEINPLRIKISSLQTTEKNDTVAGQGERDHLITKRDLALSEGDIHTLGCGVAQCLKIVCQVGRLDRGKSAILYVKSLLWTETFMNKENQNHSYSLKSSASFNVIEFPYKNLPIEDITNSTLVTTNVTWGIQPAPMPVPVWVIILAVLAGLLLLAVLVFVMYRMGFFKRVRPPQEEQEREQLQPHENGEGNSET
T2 chain 2: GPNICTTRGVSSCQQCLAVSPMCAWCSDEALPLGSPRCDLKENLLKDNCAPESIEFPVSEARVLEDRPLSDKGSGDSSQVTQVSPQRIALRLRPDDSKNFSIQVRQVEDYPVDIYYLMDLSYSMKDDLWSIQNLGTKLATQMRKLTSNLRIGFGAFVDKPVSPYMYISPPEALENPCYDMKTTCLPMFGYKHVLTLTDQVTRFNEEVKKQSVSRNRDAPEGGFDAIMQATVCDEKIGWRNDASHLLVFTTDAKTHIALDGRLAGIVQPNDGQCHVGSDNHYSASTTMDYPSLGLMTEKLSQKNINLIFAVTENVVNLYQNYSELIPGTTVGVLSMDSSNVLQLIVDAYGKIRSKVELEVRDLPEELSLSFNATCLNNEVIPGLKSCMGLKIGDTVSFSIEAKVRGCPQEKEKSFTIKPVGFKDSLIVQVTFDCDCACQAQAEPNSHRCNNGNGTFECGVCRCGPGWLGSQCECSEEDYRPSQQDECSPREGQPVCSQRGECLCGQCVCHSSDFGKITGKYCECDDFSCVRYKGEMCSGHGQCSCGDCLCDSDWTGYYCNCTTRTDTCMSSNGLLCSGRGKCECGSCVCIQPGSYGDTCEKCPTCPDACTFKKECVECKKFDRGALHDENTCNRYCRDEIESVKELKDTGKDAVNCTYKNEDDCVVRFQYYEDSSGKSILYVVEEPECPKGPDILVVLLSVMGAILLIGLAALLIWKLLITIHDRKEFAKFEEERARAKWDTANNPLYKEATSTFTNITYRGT

αvβ3 integrin [5] = molecular target: T1, αvβ3 integrin; assay: as above; remark: listed apart in the source
αvβ3 integrin [6] = molecular target: T1, αvβ3 integrin; assay: flow cytometry, competition with biotinylated LXW7 on αvβ3-K562 cells (internal reference)
αvβ3 integrin [7] = molecular target: T1, αvβ3 integrin; assay: flow cytometry, saturation binding of LXW7-Bio on A375M cells, streptavidin-PE, nonspecific binding with 100 µM LXW7 subtracted
αvβ3 integrin [8] = molecular target: T1, αvβ3 integrin; assay: flow cytometry, saturation binding of LXW7-Bio on U-87 MG cells, streptavidin-PE, nonspecific binding with 100 µM LXW7 subtracted
αvβ3 integrin [9] = molecular target: T1, αvβ3 integrin; assay: flow cytometry, saturation binding of LXW7-Bio on αvβ3-K562 cells, streptavidin-PE, nonspecific binding with 100 µM LXW7 subtracted
αvβ3 integrin [10] = molecular target: T1, αvβ3 integrin; assay: flow cytometry, saturation binding of LXW7-Bio on αvβ3-K562 cells
αvβ3 integrin [11] = molecular target: T1, αvβ3 integrin; assay: flow cytometry, saturation binding of LXW7-Bio on A375M cells
αvβ3 integrin [12] = molecular target: T1, αvβ3 integrin; assay: flow cytometry, saturation binding of LXW7-Bio on U-87 MG cells

IC50 (αvβ3 integrin [1]): < 1000 nM
B1: LXW3 (peptide)
peptide: [dC]GRGD[dS][dE][dC]-NH2
modifications: disulfide 1-8; N-terminus assumed
SMILES: N=C(N)NCCC[C@@H]1NC(=O)CNC(=O)[C@H](N)CSSC[C@H](C(N)=O)NC(=O)[C@@H](CCC(=O)O)NC(=O)[C@@H](CO)NC(=O)[C@H](CC(=O)O)NC(=O)CNC1=O

IC50 (αvβ3 integrin [2]): 600 nM
B3: cyclo(RGDfE) (peptide)
peptide: cyclo(RGD[dF]E)
SMILES: N=C(N)NCCC[C@@H]1NC(=O)[C@H](CCC(=O)O)NC(=O)[C@@H](Cc2ccccc2)NC(=O)[C@H](CC(=O)O)NC(=O)CNC1=O

Kd (αvβ3 integrin [7]): 89 nM
IC50 (αvβ3 integrin [5]): 620 nM
Kd (αvβ3 integrin [8]): 72 nM
Kd (αvβ3 integrin [9]): 76 nM
Bmax (αvβ3 integrin [10]): 1390 A.U
Bmax (αvβ3 integrin [11]): 71 A.U
Bmax (αvβ3 integrin [12]): 86 A.U
B6: Biotinylated cyclo(cGRGDdvc) (peptide)
peptide: [dC]GRGD[dD][dV][dC]-{Ebes-Ebes-K(biotin)-NH2}
modifications: disulfide 1-8

Second part, the binder before the results:

B2: cyclo (RGDfE)-Bio (peptide)
peptide: cyclo(RGD[dF]E([Ebes-Ebes-Lys(biotin) amide]))
notes: also called Biotinylated Cyclo(RGDfE)
IC50 (αvβ3 integrin [2]): 4700 nM
fold decrease in affinity on biotinylation (against the non-biotinylated form) (αvβ3 integrin [3]): 2 to 8 fold

B4: cyclo (RGDfK)-Bio (peptide)
peptide: cyclo(RGD[dF]K([Suc-Ebes″-Lys(biotin)NH2]))
modifications: reading uncertain
IC50 [4]: 1370 nM

B5: LXW7 (peptide)
peptide: [dC]GRGD[dD][dV][dC]-NH2
modifications: disulfide 1-8; N-terminus assumed
SMILES: CC(C)[C@H]1NC(=O)[C@@H](CC(=O)O)NC(=O)[C@H](CC(=O)O)NC(=O)CNC(=O)[C@H](CCCNC(=N)N)NC(=O)CNC(=O)[C@H](N)CSSC[C@H](C(N)=O)NC1=O
IC50 (αvβ3 integrin [1]): < 1000 nM
IC50 (αvβ3 integrin [5]): 680 nM
IC50 (αvβ3 integrin [6]): 590 nM
